Results taken from patent US20220040319A1 (Regeneron, published 2022).
Each block holds one binder with its values, some of them ahead of it.

Columns and labels:
[1] = target: T1, hMET.mFc (dimeric human MET) (human, UniProt P08581 27-307); test: SPR 37C, antibody captured
T1 construct: soluble dimeric MET protein
Protocol: (§1) The anti-Met antibodies tested in this example were bivalent monospecific binders of MET.
(§2) Kinetic association (kₐ) and dissociation (kd) rate constants were determined by fitting the real-time sensorgrams to a 1:1 binding model using Scrubber 2.0c curve fitting software. Binding dissociation equilibrium constant (KD) and dissociative half-life (t1/2) were calculated from the kinetic rate constants as: […]

[2] = target: T2, hMet.mmh (human MET extracellular domain with C-terminal myc-myc-hexahistidine tag) (human, UniProt P08581 309-914; P08581 27-307); test: SPR 37C, antibody captured
T2 construct: soluble monomeric MET; also called monomeric human MET
T2 sequence (P08581 other isoform, or with tags, fused parts or gaps limits assumed, chain 1 of 2): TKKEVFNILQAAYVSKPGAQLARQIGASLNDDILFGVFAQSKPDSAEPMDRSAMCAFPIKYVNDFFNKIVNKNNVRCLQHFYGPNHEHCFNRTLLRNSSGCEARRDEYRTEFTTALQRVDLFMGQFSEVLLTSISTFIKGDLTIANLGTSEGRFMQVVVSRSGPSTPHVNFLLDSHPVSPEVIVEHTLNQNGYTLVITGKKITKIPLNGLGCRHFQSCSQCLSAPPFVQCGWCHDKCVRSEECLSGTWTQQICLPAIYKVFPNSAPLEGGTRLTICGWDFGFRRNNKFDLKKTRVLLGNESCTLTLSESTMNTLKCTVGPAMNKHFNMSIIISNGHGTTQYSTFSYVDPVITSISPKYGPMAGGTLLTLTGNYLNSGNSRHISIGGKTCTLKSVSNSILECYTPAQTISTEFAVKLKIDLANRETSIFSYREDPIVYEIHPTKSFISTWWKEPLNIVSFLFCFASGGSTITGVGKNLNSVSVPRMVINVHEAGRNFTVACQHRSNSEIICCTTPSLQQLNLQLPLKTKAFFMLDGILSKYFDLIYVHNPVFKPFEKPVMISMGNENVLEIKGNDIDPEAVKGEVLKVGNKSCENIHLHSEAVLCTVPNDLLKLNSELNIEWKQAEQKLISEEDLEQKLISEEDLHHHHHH
T2 sequence (P08581 27-307 limits assumed, chain 2 of 2): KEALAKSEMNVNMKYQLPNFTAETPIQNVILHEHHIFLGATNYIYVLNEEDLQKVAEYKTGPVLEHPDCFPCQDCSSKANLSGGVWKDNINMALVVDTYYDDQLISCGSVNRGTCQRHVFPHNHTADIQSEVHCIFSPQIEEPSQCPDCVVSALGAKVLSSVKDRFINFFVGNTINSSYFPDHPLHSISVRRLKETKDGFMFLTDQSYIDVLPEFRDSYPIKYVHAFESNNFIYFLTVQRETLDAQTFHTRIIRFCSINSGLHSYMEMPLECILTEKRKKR
Protocol: as §1, §2

human MET on cells = human MET on cells (human, UniProt P08581 25-1390); test: cell-based or functional assay; as to % Inhibition, HEK293/SRE-Luc Blocking Activity (HGF, 1 h mAb pre-bind): test concentration or dose not given here
Chain of human MET on cells (P08581 25-1390 limits assumed, form in doubt): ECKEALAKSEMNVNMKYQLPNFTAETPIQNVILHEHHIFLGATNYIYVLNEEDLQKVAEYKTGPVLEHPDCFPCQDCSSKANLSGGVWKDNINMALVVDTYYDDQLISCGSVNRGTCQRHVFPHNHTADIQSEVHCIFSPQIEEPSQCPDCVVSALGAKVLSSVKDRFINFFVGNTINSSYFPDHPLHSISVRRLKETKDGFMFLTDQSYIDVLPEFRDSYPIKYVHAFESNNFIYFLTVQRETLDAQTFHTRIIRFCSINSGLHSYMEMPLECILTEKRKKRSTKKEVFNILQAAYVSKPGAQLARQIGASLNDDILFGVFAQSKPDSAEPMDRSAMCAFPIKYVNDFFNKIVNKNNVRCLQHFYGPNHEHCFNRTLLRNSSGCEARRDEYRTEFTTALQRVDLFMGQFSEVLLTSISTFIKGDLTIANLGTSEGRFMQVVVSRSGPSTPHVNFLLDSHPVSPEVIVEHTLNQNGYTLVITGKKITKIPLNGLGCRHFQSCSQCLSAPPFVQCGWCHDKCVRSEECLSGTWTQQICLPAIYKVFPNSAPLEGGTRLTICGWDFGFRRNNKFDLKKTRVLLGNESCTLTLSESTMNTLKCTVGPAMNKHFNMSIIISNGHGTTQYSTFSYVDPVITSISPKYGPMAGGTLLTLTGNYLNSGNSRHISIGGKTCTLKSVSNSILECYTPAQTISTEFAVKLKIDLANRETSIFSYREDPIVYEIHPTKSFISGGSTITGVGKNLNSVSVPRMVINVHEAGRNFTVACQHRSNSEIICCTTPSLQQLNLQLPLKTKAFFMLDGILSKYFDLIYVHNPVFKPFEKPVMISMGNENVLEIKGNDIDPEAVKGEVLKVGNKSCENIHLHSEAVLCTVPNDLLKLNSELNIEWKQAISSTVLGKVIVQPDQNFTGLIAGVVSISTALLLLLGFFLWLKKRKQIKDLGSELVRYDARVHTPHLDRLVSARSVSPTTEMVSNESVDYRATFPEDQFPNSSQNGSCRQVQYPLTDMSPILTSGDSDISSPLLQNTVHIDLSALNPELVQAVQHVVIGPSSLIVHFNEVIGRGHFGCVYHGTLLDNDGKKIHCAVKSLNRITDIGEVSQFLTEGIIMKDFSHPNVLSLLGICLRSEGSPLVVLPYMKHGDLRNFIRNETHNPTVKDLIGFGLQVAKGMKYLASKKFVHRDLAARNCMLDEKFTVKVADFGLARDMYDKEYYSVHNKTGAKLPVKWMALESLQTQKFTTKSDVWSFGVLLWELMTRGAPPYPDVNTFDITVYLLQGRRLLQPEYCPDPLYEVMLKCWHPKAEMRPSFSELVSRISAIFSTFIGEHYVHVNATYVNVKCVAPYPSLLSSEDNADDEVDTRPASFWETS

T1 sequence (P08581 other isoform, or with tags, fused parts or gaps limits assumed, chain 1 of 2): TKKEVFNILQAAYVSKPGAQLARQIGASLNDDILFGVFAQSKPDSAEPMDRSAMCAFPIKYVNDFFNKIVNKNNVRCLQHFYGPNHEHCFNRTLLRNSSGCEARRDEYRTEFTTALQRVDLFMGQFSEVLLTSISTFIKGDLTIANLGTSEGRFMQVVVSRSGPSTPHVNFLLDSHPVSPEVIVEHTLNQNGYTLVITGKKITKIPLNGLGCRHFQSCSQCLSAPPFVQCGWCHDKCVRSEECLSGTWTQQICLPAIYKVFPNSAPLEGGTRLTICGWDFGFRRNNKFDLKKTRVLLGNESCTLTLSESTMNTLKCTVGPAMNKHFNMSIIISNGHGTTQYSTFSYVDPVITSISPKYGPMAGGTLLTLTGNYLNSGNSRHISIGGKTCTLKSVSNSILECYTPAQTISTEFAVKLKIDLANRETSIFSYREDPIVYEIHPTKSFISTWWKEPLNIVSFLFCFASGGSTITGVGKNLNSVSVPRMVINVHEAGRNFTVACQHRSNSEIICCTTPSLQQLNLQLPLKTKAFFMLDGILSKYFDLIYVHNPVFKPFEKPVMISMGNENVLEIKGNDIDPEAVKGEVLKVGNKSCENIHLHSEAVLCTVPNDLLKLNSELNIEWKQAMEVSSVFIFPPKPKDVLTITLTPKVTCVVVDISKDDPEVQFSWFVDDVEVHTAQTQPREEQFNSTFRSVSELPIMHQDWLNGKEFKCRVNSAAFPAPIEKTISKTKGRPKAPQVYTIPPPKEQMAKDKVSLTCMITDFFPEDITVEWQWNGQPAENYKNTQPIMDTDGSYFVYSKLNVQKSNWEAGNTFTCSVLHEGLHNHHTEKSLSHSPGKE
T1 sequence (P08581 27-307 limits assumed, chain 2 of 2): as the sequence (P08581 27-307 limits assumed, chain 2 of 2) above

- Kd [1]: 0.657 nM
- T½ [1]: 43.3 min
- koff [1]: 0.000267 s⁻¹
- kon [1]: 406000 M⁻¹ s⁻¹
- Kd [2]: 6.38 nM
- T½ [2]: 19.7 min
- koff [2]: 0.000587 s⁻¹
- kon [2]: 92000 M⁻¹ s⁻¹
B1: H4H13309P2 (antibody, human IgG4, V domains shown)
VH: QVQLVQSGTEVKEPGASVKVSCKASGYSFTTYGISWLRQAPGQGLEWMGWISTYNGDTISAQMLQDRVTLTADTSTRTAYMELRSLRSDDTAVYYCARGHEYDSLVYSYWGQGTLVTVSS
VL: not shown
notes: human IgG4 Fc (H4H), bivalent monospecific

- Kd [1]: 1.55 nM
- T½ [1]: 24.7 min
- koff [1]: 0.000468 s⁻¹
- kon [1]: 302000 M⁻¹ s⁻¹
- Kd [2]: 116 nM
- T½ [2]: 2.2 min
- koff [2]: 0.00519 s⁻¹
- kon [2]: 44800 M⁻¹ s⁻¹
B2: H4H13311P2 (antibody, human IgG4, V domains shown)
VH: QVQLVESGGGVVQPGRSLRLSCAASGFTFSSYAMHWVRQAPGRGLEWVAVIWHDGDVEYYVDSVKDRFTISRDNSKSTLYLQMNSLRAEDTALYYCAREAWDLLRPFDYWGQGTLVTVSS
VL: not shown
notes: as for B1

- Kd [1]: 0.513 nM
- T½ [1]: 36.6 min
- koff [1]: 0.000315 s⁻¹
- kon [1]: 615000 M⁻¹ s⁻¹
- Kd [2]: 3.17 nM
- T½ [2]: 14.4 min
- koff [2]: 0.000803 s⁻¹
- kon [2]: 253000 M⁻¹ s⁻¹
B3: H4H13290P2 (antibody, human IgG4, V domains shown)
VH: QVQLQESGPGLVKPSETLSLTCTVSGDSISSYYWTWIRQPPGKGLEWIGYIFYRGGTTYNPSLKSRVTISVDTSKNQFSLKLRSVTAADTAVYYCARGDDLLVVTSVYWYIDLWGRGTLVTVSS
VL: not shown
notes: as for B1

- Kd [1]: 0.605 nM
- T½ [1]: 62.4 min
- koff [1]: 0.000185 s⁻¹
- kon [1]: 306000 M⁻¹ s⁻¹
- Kd [2]: 24.8 nM
- T½ [2]: 4.9 min
- koff [2]: 0.00236 s⁻¹
- kon [2]: 95300 M⁻¹ s⁻¹
B4: H4H13325P2 (antibody, human IgG4, V domains shown)
VH: EVQLLESGGGWVQPGGSLRLSCAASGFAFSNYAMNWVRQTPGKGLEWVSVISSSGGNTYYADSVKGRFAISRDNSRDTLHLQMNRLRVEDTAVYYCAKEIRPYYDLSYYYGMDVWGQGTTVTVSS
VL: not shown
notes: as for B1

- Kd [1]: 1.62 nM
- T½ [1]: 10.1 min
- koff [1]: 0.00114 s⁻¹
- kon [1]: 705000 M⁻¹ s⁻¹
- Kd [2]: 82.2 nM
- T½ [2]: 1.9 min
- koff [2]: 0.00622 s⁻¹
- kon [2]: 75700 M⁻¹ s⁻¹
B5: H4H13301P2 (antibody, human IgG4, V domains shown)
VH: QVQLVESGGGVVQPGTSLRLSCVASGFTFRNFGMHWVRQAPGKGLEWVANIWFDGSNENYVESIQGRFTISRDNSKNTLNLQMNSLRAEDSAVYYCVREGILGTTNPYDAFDVWGQGTMVTVSS
VL: not shown
notes: as for B1

- Kd [1]: 1.16 nM
- T½ [1]: 43.8 min
- koff [1]: 0.000264 s⁻¹
- kon [1]: 228000 M⁻¹ s⁻¹
- Kd [2]: 32.4 nM
- T½ [2]: 21.4 min
- koff [2]: 0.00054 s⁻¹
- kon [2]: 16700 M⁻¹ s⁻¹
B6: H4H13295P2 (antibody, human IgG4, V domains shown)
VH: QVQLVESGGGVVQPGRSLRVSCVVSGFTFSSFGMHWVRQAPDKGLEWVAVIWYDGSNDYYSDSVKGRFTISRDNSKNTLFLQMNRLRAEDTAVYYCARANNWNRFDAFDLWGQGTMVTVSS
VL: not shown
notes: as for B1

- Kd [1]: 1.42 nM
- T½ [1]: 21.3 min
- koff [1]: 0.000542 s⁻¹
- kon [1]: 382000 M⁻¹ s⁻¹
- Kd [2]: 76.5 nM
- T½ [2]: 4.9 min
- koff [2]: 0.00238 s⁻¹
- kon [2]: 31100 M⁻¹ s⁻¹
B7: H4H13319P2 (antibody, human IgG4, V domains shown)
VH: QVQLVESGGGVVQPGRSLRLSCAASGFTFSSFAMHWVRQAPGKGLEWVAVIWYDGSNDYYAASVKGRFTISRDNSKNTLYLEMNRLRAEDTAVYHCARDNWNYWGGMDVWGQGTTVTVSS
VL: not shown
notes: as for B1

- Kd [1]: 2.33 nM
- T½ [1]: 19.8 min
- koff [1]: 0.000584 s⁻¹
- kon [1]: 251000 M⁻¹ s⁻¹
- Kd [2]: 47 nM
- T½ [2]: 4.7 min
- koff [2]: 0.00246 s⁻¹
- kon [2]: 52400 M⁻¹ s⁻¹
B8: H4H13302P2 (antibody, human IgG4, V domains shown)
VH: QVQLVESGGGVVQPGRSLRLSCAASGFTFSNFGMHWVRQAPGKGLEWVAGIWFDGSNKNYIDSVKGRFTISRDNSKNTLYLQMNSLRAEDTAVYYCAREGYDSGTDYIPYDIFDIWGQGTMVTVSS
VL: not shown
notes: as for B1

- Kd [1]: 1.12 nM
- T½ [1]: 39.1 min
- koff [1]: 0.000295 s⁻¹
- kon [1]: 265000 M⁻¹ s⁻¹
- Kd [2]: 72.5 nM
- T½ [2]: 4.8 min
- koff [2]: 0.00243 s⁻¹
- kon [2]: 33500 M⁻¹ s⁻¹
B9: H4H13300P2 (antibody, human IgG4, V domains shown)
VH: QVQLVESGGGVVQPGRSLRLSCAVSGFTFSSYGMHWVRQAPGKGLEWVANIWYDGTNDYYPYSVKGRFTISRDNSQNTLYLQMNSLRAEDTAVYYCAREDFINYRSFDYWGQGTLVTVSS
VL: not shown
notes: as for B1

- % Inhibition, HEK293/SRE-Luc Blocking Activity (HGF, 1 h mAb pre-bind) (human MET on cells): 81%
- EC50, Ligand (HGF)-Independent HEK293/SRE-Luc Activation (human MET on cells): 1 nM
- Fold Response, Ligand (HGF)-Independent HEK293/SRE-Luc Activation (human MET on cells): 4.3 fold
- IC50, HEK293/SRE-Luc Blocking Activity (HGF, 1 h mAb pre-bind) (human MET on cells): 0.52 nM
B10: H4H16445D (bispecific antibody, human IgG4, V domains shown)
VH 1: QVQLVESGGGVVQPGGSLRLSCAASGFTFSGYGMHWVRQAPGKGLEWMAVIWYDGSNDYYPDSVKGRFTISRDNSKNTLYLQMNSLRVEDTAVYYCARDAWDLLRSFDYWGQGTLVTVSS
VH 2: EVQLVESGGGLVQPGGSLRLSCAASGFIVTTNYMTWLRQAPGKGLEWVSLIYSSGHTYYADSVKGRFTISRHNSKNTLYLQMDSLRAEDTAVYYCASAFAADVFDIWGQGTMVTVSS
VL: not shown

- % Inhibition, HEK293/SRE-Luc Blocking Activity (HGF, 1 h mAb pre-bind) (human MET on cells): 85%
- EC50, Ligand (HGF)-Independent HEK293/SRE-Luc Activation (human MET on cells): 0.42 nM
- Fold Response, Ligand (HGF)-Independent HEK293/SRE-Luc Activation (human MET on cells): 4.2 fold
- IC50, HEK293/SRE-Luc Blocking Activity (HGF, 1 h mAb pre-bind) (human MET on cells): 0.32 nM
B11: H4H16449D (bispecific antibody, human IgG4, V domains shown)
VH 1: B7 VH
VH 2: B10 VH 2
VL: not shown

- % Inhibition, HEK293/SRE-Luc Blocking Activity (HGF, 1 h mAb pre-bind) (human MET on cells): 87%
- EC50, Ligand (HGF)-Independent HEK293/SRE-Luc Activation (human MET on cells): 0.91 nM
- Fold Response, Ligand (HGF)-Independent HEK293/SRE-Luc Activation (human MET on cells): 4.3 fold
- IC50, HEK293/SRE-Luc Blocking Activity (HGF, 1 h mAb pre-bind) (human MET on cells): 0.62 nM
B12: H4H16448D (bispecific antibody, human IgG4, V domains shown)
VH 1: QVQLVESGGGVVQPGRSLRLSCVASGFSFSNFGMHWVRQAPGKGLEWVAIIWYDGSNKYYSDSVKGRFTISRDNSKNTLYLQMNSLRVDDTAVYYCARFDRWKFDAFDIWGQGTMVTVSS
VH 2: B10 VH 2
VL: not shown

- % Inhibition, HEK293/SRE-Luc Blocking Activity (HGF, 1 h mAb pre-bind) (human MET on cells): 83%
- EC50, Ligand (HGF)-Independent HEK293/SRE-Luc Activation (human MET on cells): 1.4 nM
- Fold Response, Ligand (HGF)-Independent HEK293/SRE-Luc Activation (human MET on cells): 4 fold
- IC50, HEK293/SRE-Luc Blocking Activity (HGF, 1 h mAb pre-bind) (human MET on cells): 1 nM
B13: H4H16446D (bispecific antibody, human IgG4, V domains shown)
VH 1: B9 VH
VH 2: B10 VH 2
VL: not shown

- Kd [1]: 1.02 nM
- T½ [1]: 34 min
- koff [1]: 0.000339 s⁻¹
- kon [1]: 333000 M⁻¹ s⁻¹
- Kd [2]: 93.4 nM
- T½ [2]: 4.8 min
- koff [2]: 0.00238 s⁻¹
- kon [2]: 25500 M⁻¹ s⁻¹
B14: H4H13291P2 (antibody, human IgG4, V domains shown)
VH: B10 VH 1
VL: not shown
notes: as for B1

- % Inhibition, HEK293/SRE-Luc Blocking Activity (HGF, 1 h mAb pre-bind) (human MET on cells): 76%
- EC50, Ligand (HGF)-Independent HEK293/SRE-Luc Activation (human MET on cells): 1.4 nM
B15: H4H16447D (bispecific antibody, human IgG4, V domains shown)
VH 1: B2 VH
VH 2: B10 VH 2
VL: not shown

- Kd [1]: 0.367 nM
- T½ [1]: 107 min
- koff [1]: 0.000108 s⁻¹
- kon [1]: 293000 M⁻¹ s⁻¹
- Kd [2]: 19.3 nM
- T½ [2]: 7.6 min
- koff [2]: 0.00151 s⁻¹
- kon [2]: 78200 M⁻¹ s⁻¹
B16: H4H13316P2 (antibody, human IgG4, V domains shown)
VH: EVQLVESGGGLVQPGGSLRLSCAASGFTFRSYVMSWFRQAPGKGLEWVSGMSGSGGSTSYADSVKGRFTISRDNSKNTLYLLMNSLRTEDTAVYYCAKENGANWNYGYYGMDVWGQGTTVTVSS
VL: not shown
notes: as for B1

- Kd [1]: 0.878 nM
- T½ [1]: 36.8 min
- koff [1]: 0.000314 s⁻¹
- kon [1]: 357000 M⁻¹ s⁻¹
- Kd [2]: 8.57 nM
- T½ [2]: 14.8 min
- koff [2]: 0.00078 s⁻¹
- kon [2]: 91000 M⁻¹ s⁻¹
B17: H4H13299P2 (antibody, human IgG4, V domains shown)
VH: EVQLVESGGGLVQPGGSLRLSCAASGFIFSNYEMNWVRQAPGKGLEWISYITSSGNMKYYADSVKGRFTISRDNDKNSLYLQMSSLRVEDTAVYYCVRGGRFLEWLTYYVMVVWGQGTTVTVSS
VL: not shown
notes: as for B1

- Kd [1]: 0.467 nM
- T½ [1]: 70.2 min
- koff [1]: 0.000165 s⁻¹
- kon [1]: 352000 M⁻¹ s⁻¹
- Kd [2]: 88.3 nM
- T½ [2]: 4 min
- koff [2]: 0.00292 s⁻¹
- kon [2]: 33000 M⁻¹ s⁻¹
B18: H4H13318P2 (antibody, human IgG4, V domains shown)
VH: B12 VH 1
VL: not shown
notes: as for B1

- Kd [1]: 1.19 nM
- T½ [1]: 12.9 min
- koff [1]: 0.000893 s⁻¹
- kon [1]: 750000 M⁻¹ s⁻¹
- Kd [2]: 64.9 nM
- T½ [2]: 2 min
- koff [2]: 0.0057 s⁻¹
- kon [2]: 87800 M⁻¹ s⁻¹
B19: H4H13313P2 (antibody, human IgG4, V domains shown)
VH: QVQLVESGGGVVQPGRSLRLSCSASGFSFSHFGMHWVRQVPGGGLEWVTSIWFDGSNRYYADSLKGRFTISRDNSKNTLYLEMNSLRAEDTAVYYCVREGILGTTNPYDVFDVWGQGTMVTVSS
VL: not shown
notes: as for B1

- Kd [1]: 0.244 nM
- T½ [1]: 74.1 min
- koff [1]: 0.000156 s⁻¹
- kon [1]: 639000 M⁻¹ s⁻¹
- Kd [2]: 3.35 nM
- T½ [2]: 13.2 min
- koff [2]: 0.000873 s⁻¹
- kon [2]: 261000 M⁻¹ s⁻¹
B20: H4H13331P2 (antibody, human IgG4, V domains shown)
VH: QVQLQESGPGLVKSSETLSLTCTVSGGSIRNFYWSWLRQPPGKGLEWIGHINYNGGTDYNPSLKSRVTISVDTSKNQFSLNLNSVTAADTAVYYCARQRFYGMDVWGPGTTVTVSS
VL: not shown
notes: as for B1
